Results published in the nanobody polyreactivity screen of Harvey et al. (2022).

Assay: yeast display, Sf9 membrane polyspecificity reagent, FACS + sequencing; frameworks hold sequencing errors
How it was run: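 Galactose induction of a Saccharomyces cerevisiae BJ5465 synthetic nanobody display library ran 36–48 hours. The cells were then stained for 1 hour at 4 °C with 10% biotinylated, detergent-solubilized Sf9 membrane reagent, pulled down on streptavidin microbeads and FACS-sorted into low and high (top ~1%) gates on expression and reagent-binding fluorescence. Labels for polyreactivity follow the gate of origin.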

## QDQLVESGGGLVQAGGSLRLTCAASGFNYRRNAMGWYRQAPGKERELVAAITASGGRTYYADSVKGRFTISRDNAKNTVYLQMNSLKPEDTAVDYCARDTAGFTRFSSKYDYWGQGTQVTLSS
  polyreactivity (PSR sort gate): high polyreactivity

## QFQLVESGGGLVQAGGSLRLSCAASGRIFVYYMGWYRQAPRKERELVAALSFGGGSTYYADSVKGRFTISRDNAKNTVYLQMNSLKPEDNAVYYCNADGDDLDWNYYLVQYDYWGQGTQVTVSS
  polyreactivity (PSR sort gate): low polyreactivity

## QVQLVESGGGLVQAGGSLRLSCAASGSTLGAYAMGWSRQAPGKERELVAAISRSGGNTYYADSVKGRFTISRDNAKNTVYLQMNSLKPDDTAVYYCAAVRLYRYDYWGQGTQVTVSS
  polyreactivity (PSR sort gate): low polyreactivity

## QVQLGDSGGGLVQAGGSLRLICAASGLTIPDNTMGWYRQAPGKERELVSAIDWSGGGTDYADSVKGRFTISRDNAKNTVYLQMNSLYPVDTAVYYCATSWYIYPYDDWGQGTQVTVSS
  polyreactivity (PSR sort gate): low polyreactivity

## QVQLVESGGGLVQAGGSLRLICAASGRIFDKNAMGWYRQAPGKERELVAAINRSGGRTYYADSVKGRFTISRDNAKNTVYLQMNSLKPEDTAVYYCAADTQGSRYDYWGQGTQVTVSS
  polyreactivity (PSR sort gate): high polyreactivity

## QVQLVESGGGLVQAGGSLRLSCAASGSISNVYDMGWYRQAPGKERELVATISRTGDSTYYADSVKGRFTISRDNAKNTVYLQMNSLKPEDTAVYYCAARFYWWGLGDDYWGQGTQVTVSS
  polyreactivity (PSR sort gate): high polyreactivity

## QVQLVESGGGLVQAGGSLRLSCAASGSIFVRNGMGWYIQAPGKERELVASITSGTITYYADSVKGRFTISRDNAKNTVYLQMNSLKPEDTAVYYCAARRDRGRVKFYYWGQGTQVTVSS
  polyreactivity (PSR sort gate): high polyreactivity

## QVQLVESGGGLVQAGGSLRLSCAASGFTFPWYAMGWYRQAPGKERELVAAISTSGGSTYYADSVKGRFTISRDNAKNTVYLQMNSLKPEDTAVYYCAVGRKFGRYRVPFVVPYEYWGQGTQVTVSS
  polyreactivity (PSR sort gate): high polyreactivity

## QVQLVESGGGLVQAGGSLRLSCAASGSIFRIYAMGWYRQAPGKERELVAAIRNSGRTYYADSVKGRFTISRDNAKNTVYLQMNSLKPEDTAVYYCAAVGGRLRGDRGGYWGQGTQVTVSS
  polyreactivity (PSR sort gate): high polyreactivity

## QVQLVESGGGLVQAGGSLRLSCAASGRTFPYYAMGWYRQAPGKERELVAAINSGGITNYADSVKGRFTISRDNAKNTVYLQMNSLKPEDTAVYYCAAKTAFYRERGYWGQGTQVTVSS
  polyreactivity (PSR sort gate): low polyreactivity

## QVQLVESGGGLVQAGGSLRLSCAASGSTFPSYAMGWYRQAPGKERELVAAINSGGGTNYADSVKGRFTISRDNAKNTVYLQMNSLKPEDTAVYYCNTDILSIYAEPYYFTDVDYWGQGTQVTVSS
  polyreactivity (PSR sort gate): low polyreactivity

## QVQLVESGGGLVQAGGSLRLSCAASGFTFYHNAMGWYRHAPGKERELVATITARGGRTYYADSVKGRFTISRDNAKNTVYLQMISLKPEDTAVYYCNVKASRGYTYEYDYWGQGTQVTVSS
  polyreactivity (PSR sort gate): high polyreactivity

## QVQLVESGGGLVQAGGSLRLSCAASGNTIFHYAMGWYRQAPGKERELVAAISSADSTYYADSVKGRFTISRDNAKNTVYLQMNSLKPEDTAVYYCAKDRPNRPDLYDYWGQGTQVTLSS
  polyreactivity (PSR sort gate): low polyreactivity

## QVQLVESGGGLVQAGGSLRLSCAASGSTFYGYAMGWYRQAPGKERELVAAITRSGGSTYYADSVKGRFTISRDNAKNTVYLQMNSLKPEDTEVYYCNKYGYKGGVGYDYWGQGTQVTVSS
  polyreactivity (PSR sort gate): high polyreactivity

## QVQLVESGGGLVQAGGSLRLSCAASGRIFDRKAMGWYRQAPGKERELVAAISSRDGSTYYADSVKGRFTISRDNAKNTVYLQMNSLKPEDTGVYYCNRVSRGPVGGYYWGQGTQVTVSS
  polyreactivity (PSR sort gate): high polyreactivity

## QVQLVESGGGLGQAGGSLRLICAASGSIFYSNAMGWYRQATGKERELVAAISWNGGRTYYADSVKGRFTISRDTAKNTVYLQMNSLKPEDTAVYFWAAKYRNRYDFWGQGTQVTVSS
  polyreactivity (PSR sort gate): low polyreactivity

## QVQLEESGAALVQAGGSLRLSCAAMGWYRQSPGKERELLATITWSGGSTYYADSVKGRFTISRDNAKNTVYLQMNSLKPEDTAVYYCTARATLLSPANTIRGYDYWGQGTQVTVSS
  polyreactivity (PSR sort gate): low polyreactivity

## QVQLVESGGGLVQAGGSLRLSCAASGFIFYGYVMGWYRQAPGKERELVAAITYNGGRTYYADSVKGRFTISRDNAKNTVYLQMNSLKPEDTAVYYCAALGYDGDYDYWGQGTQVTVSS
  polyreactivity (PSR sort gate): low polyreactivity

## QVQLVESGGGLVQAGGSLRLSCAASGSTFTKNAMGWYRPAPGKERELVAVISSGGSTNYADSVKGRFTISRDNAKNTVDLQMNSLKPEDTAVYYCAAEHYILYDYLWAYDYWGQGTQVTVSS
  polyreactivity (PSR sort gate): high polyreactivity

## QVQLVESVGGLVQAGGSLRLSCAASGSTSSLYAMGWYRQAPGKERELVASITSRGGSTYYAVSVKGRFTISRDNAKNTVYLLMNSLKPEDTAVYYCAADASRPDRWYLWKYYYWGQGTQVTVSS
  polyreactivity (PSR sort gate): high polyreactivity

## QVQLVESGGGLVQAGGSLRLSCAASGLTFGLYAMGWYRQAPGKERELVAVITAGGRTYYADSVKGRFTISRDNAKNTVYLQMNSLKPEDTAVYYCATVNYGSGRGYRRVYTAYYYWGQGTQVTVSS
  polyreactivity (PSR sort gate): low polyreactivity

## QVQLVESGGGLVQAGGSLRLSCAASGFIFTRYAMGGYRHAPGKERELVAAISWSGGRTYYADSVKGRFTISRDNANNTVYLQMNSLKPEDTAVYYCAARWVRIRFDYWGQGTQVAVSS
  polyreactivity (PSR sort gate): high polyreactivity

## QVQLVESGGGLDQAGGSLRLSCAASGSTLSGNAMGWYRHAPGKERELVAAITSSGGRTYYADSVKGRFTISRDNAKNTVYLQMNSLKPEDTAVYYCAARSRLGRYTYDYCGQGTQVTVSS
  polyreactivity (PSR sort gate): high polyreactivity

## QVQLVESGGGLVQAGGSLRLSWAASGRIIYGYAMGWYRQAPGKERELVAAITATYYADSVKGRFTISRDNAKNTVYLQMNSLKPEDTAVYYCNAYLYPKQPLSPPDPTFEGGYWGQGTQVTVSS
  polyreactivity (PSR sort gate): low polyreactivity

## QVQLQESVGGLVQAGGSLRLSCPASGSIFKVVDMVLYRQAPAKEREFVATIGVGGNTYYADSVKGRFTISRDNAKNTVYLQMNSLKPEDTAVYFYAVVLGTSYRYTYWGQGTQVTVSS
  polyreactivity (PSR sort gate): low polyreactivity

## QVQLVESGGGLVQAGGSLRLRCAASGRTFWRYAMGWYRQAPGKEREFVAAISSSGGNTYYADSVKGRFTITRDNANNTVYLQTNSLKPEDTAVYYCAAYYITALGIKDYVRYYWGQGTQVTVSS
  polyreactivity (PSR sort gate): high polyreactivity

## QVQLVESGGGLVQAGGSLRVSCAASGFIFVRNTMVWYRQAPGKERELVAGIRYSGGSTYYADSVKGRFTISRDNAKNTVFLQMNSQKTEDTAVYYCAARSHRRLMYYWGQGTQVNVSS
  polyreactivity (PSR sort gate): high polyreactivity

## QVQLVESGGGIVQAGGRLRLSCAASGRTSAVNAMVWYRQAPGKERELVAAITKSGGRTYYADSEKGRFTISRDNAKNTVYLQMNSLKPEDTAVYYCATSLLSRYGMDYWGQGTQVTVSS
  polyreactivity (PSR sort gate): high polyreactivity

## QVQLVESGGCLVQAGGSLRLSCAASGFTFGRYVMGWYRQAPGKERELVAGINQSGGRTNYADSVKGRFTISRDNAKNTVYLQMNSLKPEDTAVYYCAALRSWRKTGGAQRYWYDYWGQGTQVTVSS
  polyreactivity (PSR sort gate): high polyreactivity

## QVQLVESGGGLFQAGGRLRLSCASSGYTFDYYTMAWYRQAPGKERELVARITASGGSTYYADSVKGRFTISRDNAKNTVYLQMNSLKPEDTAVYYCAADYWWYTGYDYWGQGTQVTVSS
  polyreactivity (PSR sort gate): high polyreactivity

## QVQLVESGGGLVQAGGSLRLSCAASGSTFYGYAMGSYRQAPGKERELVAAISYSGSSTYYADSVKGRFTISRDNAKNTVYLQMNSLKPEDTAVFYCAVDDTHPFGPDGGGDYWGQCTQVTVSS
  polyreactivity (PSR sort gate): low polyreactivity

## QVQLVESGGGLVQAGGSLRLSCAASGSIFSLNAMGWYRQAPGKERELVAAISGRGGSTYYADSVKGRFTISRDNAKNTVYLQMNSLKPEDTAVYYCAARFSRTFLGYYYWGQGTQVTVSS
  polyreactivity (PSR sort gate): high polyreactivity

## QVQLVESGGGLVQAGGSLRLSCAASGIIFVDNDMGWYRQAPGKERELVADISDSGGSTNYADSVKGRFTISRDNAKNTVYLQMNSLKPEDTAVYYCAADSADPTEYDYWGQGTQVSVSS
  polyreactivity (PSR sort gate): low polyreactivity

## QVQLVQSGGGLVQAGGSLSLSCAASGSTFARNTMGWYRQAPGKERELVAAISYSGVTTYYADSVKGRFPISRDNEKNTVYLQMNSLKPEDTAVYYCAKLPYRRVDYGYWGQGTQVTVSS
  polyreactivity (PSR sort gate): high polyreactivity

## QAQLQESGGSLVQAGGGLRLSCAASGYISVGSVMGWYRQAPSKERELVASIDQGANTNYADSVNGRFTISRDNAKNKESLQMNSLKPEDTAVYYCATETTYIVIYWGQGTQVTVSS
  polyreactivity (PSR sort gate): low polyreactivity

## QVQLVESGGRLVQAGGSLRLSGAASGRTFAKYAMGWYRQAPGKERELVAAINSSGDSTYYADSVKGRFTISRDNAKNTVYLQMNSLKPEDTAVYYCATRYRSSQWYSPYKYDYWGQGTQVTVSS
  polyreactivity (PSR sort gate): low polyreactivity

## QVQLVESGGGLVQAGGSLRLSCAASGITFNYAMGWYRQAPGKERELVAAISRRGGSTYYADSVKGRFTISRDNAKNTVYLQMNSLKPEDTAVYYCNTTVWGSYYYWGQGTQVTVSS
  polyreactivity (PSR sort gate): high polyreactivity

## QVQLVESGGDLVQAGGSLRLSCAASGITFRRYTMGWYRQAPGKERELVAAISSGGSTNYADSVKGRFTISRDNAKNTVYLQMNSLKPEDTAVYYCAATRRYIQYGYDYWGQGTQVTVSS
  polyreactivity (PSR sort gate): high polyreactivity

## QVQLVESGGGLVQAGGSLRLSCAASGSTFSANTMGWYRPAPGKERELLAAISSSGVGTRYADSVKGRFTISRDTAKNNVYLQMKSLKPEDTAVYYCAADYRPTVITRNDYWGQGTQVTVSS
  polyreactivity (PSR sort gate): low polyreactivity

## QVQLVESGGGLVQAGGSLRLSCAASGRTLIAYAMGWYRQAPGKEREFVAAIRADDGRTYYADSVKGRFTISRDNAMNTVYLQMNSLKPDDTAVYYCATKADKRYRFGYWGQGTQVTVSS
  polyreactivity (PSR sort gate): high polyreactivity

## QVQLVESGGGLVQAGGSLRLSCAASGRIFDNYVMGWYRQAPGKERELVAAISSGGGTYYADSVKGRFTISRDNAKNTVYLQMNSLKPEDTAVYYCAKRRVYDRSFGRYDYCGQGTQVTVSS
  polyreactivity (PSR sort gate): low polyreactivity

## QVQLVESGGGLVQAGGRLRLSCAASGISFRFNAMGWYRQAPGKEREFVAAITYSGDSTYDADSVMGRFTISRDNAKNTVYLQKNSLKPEDTAVYYCAADYYAIYRRIFYYWGQGTQVTVSS
  polyreactivity (PSR sort gate): low polyreactivity

## QVQLVESGGGLVQAGGSLRLSCAASGFTIDGYAMGGYRQAPGKERELVAAISGGGSTYYADSVKGRFTISRDNAKNTVYLQMNSLKPEDTAVYYCAAARITRGRRYDYWGQGTQVTVSS
  polyreactivity (PSR sort gate): high polyreactivity
